B1: α1s II–III loop C region peptide (residues 720–765) [not stated] / DHPR β1a subunit, full length [mouse] (parent complex)
chain 1: LKVDEFESNVNEVKDPYPSADFPGDDEEDEPEIPVSPRPRPLAELQ
chain 2: not shown

Variants of: B1
Assay: intrinsic fluorescence binding (fluorescence quenching at 340 nm); read at the last titration point, 9 µM peptide; parent: 0.66; read off a plot
For chain 1 P16A, chain 1 P18A, chain 1 P23A, chain 1 P31A, chain 1 P34A, chain 1 P37A, chain 1 P39A, chain 1 P41A, the response was roughly 0.93.
